The substances below were run against bovine brain Arp2/3 complex (bovine) (UniProt P61157) (assay: ITC; cortactin constructs titrated into ATP-Arp2/3 complex; temperature and concentrations indicated only in Fig. 4d).

Cort_(1-76), cortactin N-terminal acidic domain (NTA, residues 1-76), sequence (Q60598 1-76): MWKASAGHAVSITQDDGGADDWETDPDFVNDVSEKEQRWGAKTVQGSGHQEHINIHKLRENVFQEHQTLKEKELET
Cort_(18-76), sequence (Q60598 18-76): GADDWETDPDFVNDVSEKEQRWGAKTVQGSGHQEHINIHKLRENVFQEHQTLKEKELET
Cort_(1-33), sequence (Q60598 1-33): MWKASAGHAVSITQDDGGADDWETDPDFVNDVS

Stoichiometry N, 1:
Cort_(1-33) (from UniProt Q60598 1-33) (domain or fragment)
Cort_(18-76) (from UniProt Q60598 18-76) (domain or fragment)
Cort_(1-76), cortactin N-terminal acidic domain (NTA, residues 1-76) (from UniProt Q60598 1-76) (domain or fragment)
